The values below come from patent US20250236663A1 (NEURACLE SCIENCE, published 2025).

Substitutions are numbered along the chain they refer to.

For experiment [1], the target named is T1, FAM19A5 fragment 5 mutant peptide F5-4 (#4) (human).
T1 construct: The entry already carries the alanine substitution and Ser for Cys; also called mutant peptide #4
Put plainly: ELISA on alanine-substituted F5 peptides (I16 to alanine). How it is done: Overlapping peptide fragments (F1-F6, see FIG. 9) of the human FAM19A5 protein were synthesized and conjugated to BSA. Binding of the different anti-FAM19A5 antibodies to the BSA-conjugated peptide fragments F1-F6 was determined by Western blot analysis or ELISA assay. For the Western blot analysis, BSA-conjugated FAM19A5 fragments F1-F6 were separated by SDS polyacrylamide gel electrophoresis and transferred to a nitrocellulose membrane by the standard procedure. The membrane was incubated with the anti-FAM19A5 antibody (e.g., 1-65, 2 μg/ml, 1-65-scFv-rabbit Fc-SSS), and the antigen-antibody complexes were detected with the appropriate secondary antibody conjugated with horse-radish peroxidase (anti-rabbit IgG (Fc specific)-HRP, 1:4000 dilution). For the ELISA assay, the following protocol was used. FAM19A5 fragment F1-F6 (diluted to 1 μg/mL in 50 mM carbonate buffer (Biosesang) or to 20 μg/mL for high concentration analysis) were used to coat the wells of 96-well immuno plates (Thermo Scientific) (100 μL/well) overnight at 4° C. and then subsequently washed twice in 1×PBS. The plates were then blocked with the blocking buffer (100 μL/well) for 1 hour at room temperature. […] The absorption value of each of the wells was detected at 492 nm using a 96-well microplate reader (Molecular Device). […]

The target in the next experiment is FAM19A1 (UniProt Q7Z5A9 20-133). The experiment in a line: Western blot on extracts of HEK293T cells stably transfected with FAM19A family genes. How it is done:
(§1) HEK293T cells stably transfected with genes encoding the FAM19A family of proteins were lysed in buffer containing 50 mM Tris-HCL (pH 6.8), 2% SDS, 10% glycerol, 100 mM mercaptoethanol, and bromophenol blue. Whole-cell extracts were resolved on SDS-polyacrylamide (PAGE) gels and transferred to nitrocellulose blotting membranes in a Bio-Rad Trans-Blot electrophoresis apparatus (Hercules, CA, USA). The blots were blocked in Tris-buffered saline containing 0.3% Tween 20 and 5% skim milk, and incubated with anti-FAM19A5 antibody at room temperature for 3 h. They were then washed three times with TBS/0.3% Tween 20. Antibody binding was subsequently detected by incubation with secondary antibodies linked to horseradish peroxidase (Jackson ImmunoReserch Laboratories, West Grove, PA, USA). The blots were washed three times, and immunoreactive bands were visualized by exposure to X-ray film for 0.5 or 10 min, after application of GE healthcare ECL reagents (Buckinghamshire, UK). […] Cells were then blocked with 3% BSA and 0.1% Triton X-100 in PBS for 30 min at room temperature. Primary antibody (the anti-FAM19A5 antibody 1-65) was applied overnight at 4° C. After several washes with PBS, appropriate secondary antibodies were applied for 30 min. Subsequently, the cells were washed, mounted, and observed under a fluorescence or confocal microscope (LSM700; Zeiss, Goettingen, Germany). Nuclei were stained with Hoechst 33342.
For orientation: A western blot detects proteins with antibodies after separation by electrophoresis.

Another experiment addresses T2, FAM19A2 (UniProt Q8N3H0 31-131, limits assumed).
T2 construct: Member of the group other FAM19A subfamily proteins; also called other FAM19A subfamily proteins; other proteins in the FAM19A subfamily
The description is as above. How it is done: as §1

Another experiment concerns the target T3, FAM19A3 (UniProt Q7Z5A8 31-133, limits assumed).
T3 construct: Member of the group other FAM19A subfamily proteins; also called other FAM19A subfamily proteins; other proteins in the FAM19A subfamily
The description is as above. How it is done:
as §1

The target of another experiment is T4, FAM19A4 (UniProt Q96LR4 36-140, limits assumed).
T4 construct: Member of the group other FAM19A subfamily proteins; also called other FAM19A subfamily proteins; other proteins in the FAM19A subfamily
The description is as above. How it is done: as §1

The target in a further experiment is T5, FAM19A5-M1.
T5 construct: also called FAM19A5 mutant M1
T5 FAM19A5 mutant: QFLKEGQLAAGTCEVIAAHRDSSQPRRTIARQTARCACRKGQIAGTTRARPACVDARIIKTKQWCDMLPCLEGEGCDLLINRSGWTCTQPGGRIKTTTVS
Put plainly: ELISA on phage-displayed FAM19A5 mutants; y axis without label; IgG only bars 0.02 to 0.2. (In general: In an ELISA, binding on a coated surface is turned into a signal by an enzyme label.)

Another experiment deals with T6, FAM19A5-M2.
T6 construct: also called FAM19A5 mutant M2
T6 FAM19A5 mutant: T5 FAM19A5 mutant with V15I, I16V, A17T, A18L, H19D, D21C, S22C, S23N, Q24K, P25N
The experiment is described as above.

A further experiment has as its target T7, FAM19A5-M3.
T7 construct: also called FAM19A5 mutant M3
T7 FAM19A5 mutant: T5 FAM19A5 mutant with V15I, I16V, A17T, A18L, H19D, R27I, T28E, I29E, A30R, R31S
The description is as above.

The next experiment addresses T8, FAM19A5-M4.
T8 construct: also called FAM19A5 mutant M4
T8 FAM19A5 mutant: T5 FAM19A5 mutant with V15I, I16V, A17T, A18L, H19D, A34V, R35K, A37S, R39F, K40P
Described as above.

For the next experiment, the target named is T9, FAM19A5-M5.
T9 construct: also called FAM19A5 mutant M5
T9 FAM19A5 mutant: T5 FAM19A5 mutant with V15I, I16V, A17T, A18L, H19D, A49N, R50K, A52S
The experiment is described as above.

T2 sequence (Q8N3H0 31-131 limits assumed): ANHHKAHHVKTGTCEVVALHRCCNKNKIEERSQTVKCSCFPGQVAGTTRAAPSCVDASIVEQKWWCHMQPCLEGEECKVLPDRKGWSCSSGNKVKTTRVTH
T4 sequence (Q96LR4 36-140 limits assumed): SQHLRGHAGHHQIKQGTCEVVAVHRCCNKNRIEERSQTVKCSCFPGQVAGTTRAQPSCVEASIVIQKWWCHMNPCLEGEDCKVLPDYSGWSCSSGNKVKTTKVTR
T1 sequence (peptide, as listed by the source mutant): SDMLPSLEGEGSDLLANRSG
T3 sequence (Q7Z5A8 31-133 limits assumed): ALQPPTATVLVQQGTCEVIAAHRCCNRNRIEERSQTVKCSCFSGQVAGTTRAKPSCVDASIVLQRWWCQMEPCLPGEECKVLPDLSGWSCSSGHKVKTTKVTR

B1: chimeric anti-FAM19A5-IgG2/4 monoclonal antibody (1-65) (antibody, V domains shown)
VH: AVTLDESGGGLQTPGGALSLVCKASGFTFSSYQMGWVRQAPGKGLEWVGVINKSGSDTSYGSAVKGRATISRDNGQSTVRLQLNNLRAEDTGTYFCAKGSASYITAATIDAWGHGTEVIVSS
VL: ALTQPSSVSANPGETVKITCSGGGSSGYGYGWYQQKSPSSAPLTVIYWNDKRPSDIPSRFSGSKSGSTHTLTITGVQAEDEAVYFCGNDDYSSDSGYVGVFGAGTTLTVL
notes: Chicken-derived variable domains; also called anti-FAM19A5 antibody 1-65; Anti-FAM19A5 (1-65)
For the molecule B1, the binding result is “no binding” in experiment [1]; “no binding” in the experiment with FAM19A1; “no binding” with FAM19A2; “no binding” with FAM19A3; “no binding” with FAM19A4; “binds” with FAM19A5-M1. The binding result in the experiment with FAM19A5-M2, in the experiment with FAM19A5-M3, with FAM19A5-M4 and with FAM19A5-M5 was “binds” each time.
